From article PMC3436176

Target: III-30A (human)
Test: ELISA

Sequence of GPVIex (recombinant extracellular domain of GPVI) (Q9HCN6 21-214): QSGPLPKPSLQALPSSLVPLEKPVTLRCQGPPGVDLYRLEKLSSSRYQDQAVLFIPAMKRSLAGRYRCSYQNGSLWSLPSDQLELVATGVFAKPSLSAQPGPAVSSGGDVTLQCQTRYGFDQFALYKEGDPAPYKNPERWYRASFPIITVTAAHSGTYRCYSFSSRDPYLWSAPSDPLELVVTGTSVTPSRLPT

Kd: 10.2 µM
Substance: GPVIex (recombinant extracellular domain of GPVI) (from UniProt Q9HCN6 21-214) (domain or fragment)
